Laboratory results as given in article doi:10.1101/2025.01.03.631197.

Target: EPHA2 (human (endogenous in HSC-4)) (UniProt P29317)
Experiment: proximity ligation

Chain of UniProt P29317 (P29317 24-976): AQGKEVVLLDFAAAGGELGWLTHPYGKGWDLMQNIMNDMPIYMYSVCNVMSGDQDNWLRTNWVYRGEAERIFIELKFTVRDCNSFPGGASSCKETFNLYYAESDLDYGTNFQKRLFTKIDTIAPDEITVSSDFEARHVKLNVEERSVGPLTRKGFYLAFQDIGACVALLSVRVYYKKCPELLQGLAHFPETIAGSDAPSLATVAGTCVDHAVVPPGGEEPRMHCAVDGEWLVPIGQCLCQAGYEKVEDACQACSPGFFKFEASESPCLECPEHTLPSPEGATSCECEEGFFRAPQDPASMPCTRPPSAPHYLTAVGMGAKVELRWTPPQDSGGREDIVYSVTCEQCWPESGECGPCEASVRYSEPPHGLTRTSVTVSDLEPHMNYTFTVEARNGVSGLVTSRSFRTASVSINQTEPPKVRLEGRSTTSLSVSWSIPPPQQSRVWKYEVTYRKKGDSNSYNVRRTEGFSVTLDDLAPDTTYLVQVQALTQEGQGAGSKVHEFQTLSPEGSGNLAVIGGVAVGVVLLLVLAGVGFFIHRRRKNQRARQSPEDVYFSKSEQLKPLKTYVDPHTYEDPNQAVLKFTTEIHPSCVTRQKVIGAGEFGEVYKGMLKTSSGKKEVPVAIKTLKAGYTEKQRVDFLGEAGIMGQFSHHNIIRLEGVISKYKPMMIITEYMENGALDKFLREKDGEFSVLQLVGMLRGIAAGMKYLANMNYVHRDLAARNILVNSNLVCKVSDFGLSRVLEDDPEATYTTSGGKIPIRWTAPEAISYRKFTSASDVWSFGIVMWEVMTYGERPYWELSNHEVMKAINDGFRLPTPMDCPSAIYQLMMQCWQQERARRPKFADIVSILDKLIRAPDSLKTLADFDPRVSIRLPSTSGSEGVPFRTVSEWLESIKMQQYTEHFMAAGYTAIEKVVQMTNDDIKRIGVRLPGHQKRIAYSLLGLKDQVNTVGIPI

PLA foci per cell (foci per cell): 2
Substance: Ephrin-B1 phosphorylated at Y324/329 (ligand)
